{"source": "patent US20190184015A1", "about": "“IRRADIATION TREATMENT OF NEUROLOGICAL SENSATIONS BY PHOTOABLATION” (European Molecular Biology Laboratory, priority 2016, published 2019)", "molecules": {"B1": {"name": "BDNF^SNAP-IR700: BDNF^SNAP conjugated in vitro to benzylguanine modified IRDye®700 DX phthalocyanine (conjugate, UniProt P23560 19-247, looked up)", "Neurotrophic factor BDNF …": "APMKEANIRGQGGLAYPGVRTHGTLESVNGPKAGSRGLTSLADTFEHVIEELLDEDQKVRPNEENNKDADLYTSRVMLSSQVPLEPPLLFLLEEYKNYLDAANMSMRVRRHSDPARRGELSVCDSISEWVTAADKKTAVDMSGGTVTVLEKVPVSKGQLKQYFYETKCNPMGYTKEGCRGIDKRHWNSQCRTTQSYVRALTMDSKKRIGWRFIRIDTSCVCTLTIKRGR", "modifications": "C-terminal SNAP tag; IRDye700DX conjugate", "notes": "BDNF^SNAP conjugated in vitro to benzylguanine modified IRDye®700 DX phthalocyanine"}, "B2": {"name": "IL31^SNAP-Surface549: IL31^SNAP labelled in vitro with BG-Surface549 (conjugate)", "chain": "TCSLSFGAPISKEDLRTTIDLLKQESQDLYNNYSIKQASGMSADESIQLPCFSLDREALTNISVIIAHLEKVKVLSENTVDTSWVIRWLTNISCFNPLNLNISVPGNTDESYDCKVFVLTVLKQFSNCMAELQAKDNTTC", "modifications": "left off: small tags and cut ends"}}, "key": {"[1]": {"target": "native TrkB receptors in DRG neurons (mouse) (mouse) (UniProt P15209)", "sequence (P15209 32-821)": "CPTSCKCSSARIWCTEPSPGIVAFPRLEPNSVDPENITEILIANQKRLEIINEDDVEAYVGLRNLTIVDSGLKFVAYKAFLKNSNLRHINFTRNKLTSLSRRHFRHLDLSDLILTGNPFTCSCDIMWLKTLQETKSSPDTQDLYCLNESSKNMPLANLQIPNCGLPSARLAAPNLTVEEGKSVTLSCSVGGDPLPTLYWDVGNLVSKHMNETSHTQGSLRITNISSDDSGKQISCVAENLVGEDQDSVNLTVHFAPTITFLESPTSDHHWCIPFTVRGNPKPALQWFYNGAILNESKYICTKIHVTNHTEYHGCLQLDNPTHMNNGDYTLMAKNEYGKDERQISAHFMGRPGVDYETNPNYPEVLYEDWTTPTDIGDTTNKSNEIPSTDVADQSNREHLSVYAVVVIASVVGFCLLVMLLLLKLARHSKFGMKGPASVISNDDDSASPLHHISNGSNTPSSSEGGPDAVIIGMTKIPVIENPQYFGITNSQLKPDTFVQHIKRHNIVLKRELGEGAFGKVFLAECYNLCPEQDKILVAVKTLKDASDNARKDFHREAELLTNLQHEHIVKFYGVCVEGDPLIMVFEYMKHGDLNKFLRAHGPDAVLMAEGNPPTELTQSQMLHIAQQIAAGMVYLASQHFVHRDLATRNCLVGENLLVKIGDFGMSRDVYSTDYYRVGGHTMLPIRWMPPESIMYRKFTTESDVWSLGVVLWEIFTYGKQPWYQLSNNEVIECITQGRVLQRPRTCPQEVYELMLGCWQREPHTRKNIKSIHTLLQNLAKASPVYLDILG", "assay": "Qdot 655 conjugated ligand on dissociated DRG of TrkBCreERT2::Rosa26RFP mice, counting of labelled cells"}, "[2]": {"tested_on": "HEK293T cells expressing TrkB/p75", "assay": "BDNF^SNAP-IR700 photoablation of HEK293T cells (propidium iodide)", "assay_type": "cell-based", "excerpt": "In initial experiments BDNF^SNAP-IR700 was applied to HEK293T cells expressing TrkB/p75 and cell death assayed following near infrared illumination."}, "TrkB+ neurons [3]": {"tested_on": "TrkB+ neurons", "assay": "Spared Nerve Injury (SNI) model, photoablation in the paw", "assay_type": "in vivo, mouse", "excerpt": "Next neuropathic pain was induced in mice using the Spared Nerve Injury (SNI) model. Control mice developed a profound mechanical hypersensitivity in the sural nerve territory of the paw to both von Frey filaments and dynamic brush stimuli (FIGS. 6D and E). […] The inventors performed further experiments in TrkBCreERT2::Rosa26ChR2 mice to optogenetically activate these neurons. Three days after injury it was observed that selective stimulation of TrkB neurons with light evoked behavior indicative of pain. This was evident as a prolonged paw withdrawal from the stimulation, lifting of the paw and licking of the illuminated area (FIG. 6F) that continued for several minutes after light application. Such behavior persisted throughout the 2 weeks observation period and was never observed in control mice (FIG. 6F).\n(§1) The inventors next sought to assess the therapeutic potential of this approach by investigating the effects of BDNF^SNAP-IR700 mediated photoablation in wildtype mice with neuropathic pain. Upon establishment of robust mechanical allodynia three days after SNI, a range of concentrations of BDNF^SNAP-IR700 was injected into the ipsilateral paw of injured mice and the skin illuminated with different light intensities. […] It was examined whether such pronounced effects were also evident in other types of neuropathic pain. […] To determine the selectivity of this approach, the inventors further assessed the effects of BDNF^SNAP-IR700 mediated photoablation on behavioral responses under basal conditions. No deficits in sensitivity to cold, heat, or pinprick upon treatment were observed (FIG. 8f to h). Responses to cotton swab were also unaffected by photoablation (FIG. 3i), perhaps because the skin area that is stimulated in this test extends beyond the zone of illumination."}, "TrkB+ neurons [4]": {"tested_on": "TrkB+ neurons", "assay": "Streptozotocin model of painful diabetic neuropathy", "assay_type": "in vivo, mouse", "description": "as §1"}, "TrkB+ neurons [5]": {"tested_on": "TrkB+ neurons", "assay": "Paclitaxel model of chemotherapy induced neuropathic pain", "assay_type": "in vivo, mouse", "description": "as §1"}, "[6]": {"tested_on": "baseline sensory behavior", "assay": "Behavioral responses under basal conditions after photoablation in the paw", "assay_type": "in vivo, mouse", "description": "as §1"}, "TrkB positive afferents": {"tested_on": "TrkB positive afferents", "assay": "Innervation of skin and DRG neuron counts after photoablation", "assay_type": "in vivo, mouse", "excerpt": "Prior to photoablation, TrkB positive lanceolate endings were detected around hair follicles (FIG. 9a) and innervating Meissner corpuscles in the plantar surface of the paw. […] It was further investigated whether loss of TrkB^CreERT2 neurons was also evident at the level of the cell soma by analyzing the number of TrkB^CreERT2 positive neurons in the DRG."}, "TrkB sensory fibers": {"tested_on": "TrkB sensory fibers", "assay": "Behavioral sensitivity after photoablation in the sciatic nerve", "assay_type": "in vivo, mouse", "quoted_text": "It was further investigated whether optogenetically evoked pain behavior in SNI mice is dependent upon CD34 + cells or TrkB+ fibers in the skin."}, "skin cell types": {"tested_on": "skin cell types", "settings": "mouse, in vivo"}, "IL31 Receptor A (IL31RA)": {"target": "T1, IL31 Receptor A (IL31RA) (Mus musculus, UniProt Q8K5B1)", "T1 construct": "from tissue; host or cells: mouse back skin (nape of the neck), in vivo", "T1 sequence (Q8K5B1 19-716)": "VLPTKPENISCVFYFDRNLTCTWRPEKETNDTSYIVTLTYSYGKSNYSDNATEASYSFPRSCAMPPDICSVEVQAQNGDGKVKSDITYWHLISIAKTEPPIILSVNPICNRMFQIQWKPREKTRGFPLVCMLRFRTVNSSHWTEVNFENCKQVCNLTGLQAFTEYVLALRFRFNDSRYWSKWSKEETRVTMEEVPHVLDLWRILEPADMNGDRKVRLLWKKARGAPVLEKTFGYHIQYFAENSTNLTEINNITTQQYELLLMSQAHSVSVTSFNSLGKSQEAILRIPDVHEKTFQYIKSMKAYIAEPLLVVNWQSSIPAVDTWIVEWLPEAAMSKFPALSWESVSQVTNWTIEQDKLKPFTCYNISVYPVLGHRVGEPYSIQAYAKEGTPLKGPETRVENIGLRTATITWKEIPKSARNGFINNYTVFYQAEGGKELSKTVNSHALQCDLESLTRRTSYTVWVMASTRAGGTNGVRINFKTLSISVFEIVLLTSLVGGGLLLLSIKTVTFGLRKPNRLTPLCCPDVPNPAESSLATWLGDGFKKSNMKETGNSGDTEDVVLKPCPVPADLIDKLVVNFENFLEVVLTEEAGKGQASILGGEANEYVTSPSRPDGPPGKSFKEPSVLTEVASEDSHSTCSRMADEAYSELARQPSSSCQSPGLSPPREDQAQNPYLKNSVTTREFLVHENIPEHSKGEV", "T1 sequence (O70458 24-971 partner)": "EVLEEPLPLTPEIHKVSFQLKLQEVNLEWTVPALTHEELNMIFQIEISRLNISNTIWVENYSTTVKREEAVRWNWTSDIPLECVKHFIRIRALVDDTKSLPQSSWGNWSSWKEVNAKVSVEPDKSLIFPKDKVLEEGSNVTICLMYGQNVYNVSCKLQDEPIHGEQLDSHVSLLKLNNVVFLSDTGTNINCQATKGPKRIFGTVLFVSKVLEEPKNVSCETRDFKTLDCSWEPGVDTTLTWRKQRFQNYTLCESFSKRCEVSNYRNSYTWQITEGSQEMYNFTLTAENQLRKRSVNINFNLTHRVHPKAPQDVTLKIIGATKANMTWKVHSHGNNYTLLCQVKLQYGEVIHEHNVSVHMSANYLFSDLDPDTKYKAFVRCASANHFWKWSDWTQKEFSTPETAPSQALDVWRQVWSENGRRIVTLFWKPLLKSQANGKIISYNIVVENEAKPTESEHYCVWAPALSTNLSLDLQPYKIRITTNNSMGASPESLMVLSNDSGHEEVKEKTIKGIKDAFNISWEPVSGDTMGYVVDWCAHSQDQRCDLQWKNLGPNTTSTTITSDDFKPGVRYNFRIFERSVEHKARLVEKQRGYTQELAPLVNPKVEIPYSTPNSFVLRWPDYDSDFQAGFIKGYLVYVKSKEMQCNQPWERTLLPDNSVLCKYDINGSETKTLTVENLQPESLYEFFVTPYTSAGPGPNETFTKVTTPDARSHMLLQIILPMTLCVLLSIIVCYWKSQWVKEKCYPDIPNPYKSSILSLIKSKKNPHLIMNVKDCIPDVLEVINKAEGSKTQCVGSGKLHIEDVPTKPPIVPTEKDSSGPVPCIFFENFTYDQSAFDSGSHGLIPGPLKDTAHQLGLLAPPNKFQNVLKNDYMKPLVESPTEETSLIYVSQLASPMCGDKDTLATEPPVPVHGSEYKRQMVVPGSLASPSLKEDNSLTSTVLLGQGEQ", "assay": "In vivo skin labelling after intradermal injection", "settings": "wildtype mice; intradermal injection into back skin", "excerpt": "The inventors produced recombinant IL31 with a C-terminal fusion of SNAP (IL31^SNAP) in E. Coli. […] To determine whether IL31^SNAP was functional the inventors first performed binding studies in primary keratinocyte cultures. IL31^SNAP was labelled in vitro with BG-Surface549 and applied to keratinocytes from wildtype or IL31 Receptor A (IL31RA) knockout mice (IL31RA^−/−). […] The inventors further examined IL31^SNAP labelling in vivo by injecting IL31^SNAP-Surface549 intradermally into the back skin of wild type and IL31RA^−/− mice. […] Finally, the inventors determined whether IL31^SNAP was active by quantifying scratching behavior in mice upon intradermal injection. […] Thus the IL31^SNAP retains the functional properties of native IL31.\nFor skin labelling, intradermal injection of 5 μM IL31^SNAP coupled with 5 μM BG549surf was performed in the nape of the neck. After […] (30 min) skin was collected, fix in PFA 4% overnight, OCT-embedded and cryo-sectioned (25 μm)."}, "[7]": {"settings": "SNI mice, injection into ipsilateral paw and illumination"}, "[8]": {"settings": "injection into sciatic nerve, nerve illuminated"}}, "note": "“Also recorded” adds a separate entry of the source.", "data": [{"molecule": "BDNF^SNAP (ligand)", "values": [{"measurement": "overlap between BDNF^SNAP and TrkBCreERT2 positive cells", "setting": "[1]", "value": "> 95", "unit": "%"}]}, {"molecule": "B1", "values": [{"measurement": "cell death after near infrared illumination", "setting": "[2]; HEK293T cells expressing TrkB/p75, 24 hours after brief illumination", "value": "substantial cell death"}, {"measurement": "cell death after near infrared illumination", "setting": "[2]; mock transfected HEK293T cells", "value": "not evident"}, {"measurement": "cotton swab evoked allodynia", "setting": "TrkB+ neurons [3]; [7]", "value": "concentration and illumination dependent rescue; also recorded: reversed by photoablation"}, {"measurement": "dynamic brush evoked allodynia", "setting": "TrkB+ neurons [3]; [7]", "value": "concentration and illumination dependent rescue; also recorded: dose dependent reversal of mechanical hypersensitivity"}, {"measurement": "von Frey withdrawal thresholds", "setting": "TrkB+ neurons [3]; [7]", "value": "concentration and illumination dependent rescue; also recorded: dose dependent reversal of mechanical hypersensitivity"}, {"measurement": "persistence of rescue", "setting": "TrkB+ neurons [3]; after a single treatment regime", "value": "more than 3 weeks"}, {"measurement": "return to injury levels", "setting": "TrkB+ neurons [4]", "value": "≤ 20", "unit": "days"}, {"measurement": "time of peak reversal", "setting": "TrkB+ neurons [4]", "value": "around 10 days post treatment"}, {"measurement": "mechanical hypersensitivity", "setting": "TrkB+ neurons [4]; 5 μM at 200 J/cm^2", "value": "marked reversal of mechanical hypersensitivity; also recorded: reverses mechanical allodynia"}, {"measurement": "return to injury levels", "setting": "TrkB+ neurons [5]", "value": "≤ 20", "unit": "days"}, {"measurement": "time of peak reversal", "setting": "TrkB+ neurons [5]", "value": "around 10 days post treatment"}, {"measurement": "mechanical hypersensitivity", "setting": "TrkB+ neurons [5]; 5 μM at 200 J/cm^2", "value": "marked reversal of mechanical hypersensitivity; also recorded: reverses mechanical allodynia"}, {"measurement": "responses to cotton swab", "setting": "[6]", "value": "unaffected; also recorded: does not affect baseline sensory behavior responses"}, {"measurement": "sensitivity to cold (acetone drop test)", "setting": "[6]", "value": "No deficits; also recorded: does not affect baseline sensory behavior responses"}, {"measurement": "sensitivity to heat (hot plate test)", "setting": "[6]", "value": "No deficits; also recorded: does not affect baseline sensory behavior responses"}, {"measurement": "sensitivity to pinprick", "setting": "[6]", "value": "No deficits; also recorded: does not affect baseline sensory behavior responses"}, {"measurement": "innervation of hairy and glabrous skin", "setting": "TrkB positive afferents; 7 days after photoablation (13 days post-SNI)", "value": "selective loss of TrkB fibers but persistent innervation by PGP9.5 fibers; also recorded: Substantial loss of TrkB^CreERT2 positive afferents (red), but persistence of other fibers"}, {"measurement": "proportion of TrkB neurons in the DRG", "setting": "TrkB positive afferents; 10 days after photoablation", "value": "No differences in the proportion of TrkB neurons"}, {"measurement": "innervation of skin by TrkB positive fibers", "setting": "TrkB positive afferents; 24 days post-photoablation", "value": "TrkB positive fibers were again seen innervating their appropriate end organs; also recorded: Reinnervation of skin by TrkB^CreERT2 afferents"}, {"measurement": "light driven nocifensive behavior", "setting": "TrkB sensory fibers; TrkB^CreERT2::Rosa26^ChR2 mice with SNI, sciatic nerve photoablation", "value": "significant reduction in light driven nocifensive behavior; also recorded: reduced by nerve photoablation"}, {"measurement": "behavioral response to cooling (acetone drop test)", "setting": "TrkB sensory fibers; injection into sciatic nerve at mid-thigh level, nerve illuminated", "value": "normal; also recorded: not altered by nerve photoablation"}, {"measurement": "behavioral response to heating (radiant heat test)", "setting": "TrkB sensory fibers; [8]", "value": "normal; also recorded: not altered by nerve photoablation"}, {"measurement": "behavioral response to pinprick", "setting": "TrkB sensory fibers; [8]", "value": "normal; also recorded: not altered by nerve photoablation"}, {"measurement": "sensitivity to cotton swab", "setting": "TrkB sensory fibers; [8]", "value": "reduced by nerve photoablation"}, {"measurement": "number of CD34 positive cells in the skin", "setting": "skin cell types", "value": "significantly reduced the number of CD34 positive cells"}, {"measurement": "numbers of Merkel cells, keratinocytes, dendritic and dermal antigen presenting cells in the skin", "setting": "skin cell types", "value": "did not alter their numbers"}]}, {"molecule": "B2", "values": [{"measurement": "fluorescent signal in cells in skin sections", "setting": "IL31 Receptor A (IL31RA)", "value": "fluorescent signal was observed"}]}]}
